Target: RecU protein from Mycoplasma genitalium (RecUMge) (Mycoplasma genitalium) (UniProt Q49422)

HJ resolution activity of RecUMge (0.2 uM) on HJ 1.1 preincubated with RecUMge before RuvAMge (0 to 4 uM) was added; percent inhibition (≥20% only at ≥250 nM): > 80%
HJ resolution activity of RecUMge (0.2 uM) on HJ 1.1 preincubated with RuvAMge (0 to 4 uM) before RecUMge was added; percent reduction of activity (about 20% at 60 nM, highest at 1 uM or more): > 80%
Substance: RuvA homologue from Mycoplasma genitalium (RuvAMge), H10-tagged (from UniProt Q49424 1-205) (natural protein)

From PMC3364216
